According to PMC4358367, “Structural basis of diverse membrane target recognitions by ankyrins” (eLife, 2014):
Residue numbers refer to the chain shown, from its start. Names may count otherwise. Where two headings read alike, the source gives them in different places.

Key:
[1] = biological target: T1, AnkG_repeats (24 ANK repeats of rat 190 kDa ankyrin-G, residues 38–855), O70511; assay: ITC; conditions: chain shown with the change
T1 chain: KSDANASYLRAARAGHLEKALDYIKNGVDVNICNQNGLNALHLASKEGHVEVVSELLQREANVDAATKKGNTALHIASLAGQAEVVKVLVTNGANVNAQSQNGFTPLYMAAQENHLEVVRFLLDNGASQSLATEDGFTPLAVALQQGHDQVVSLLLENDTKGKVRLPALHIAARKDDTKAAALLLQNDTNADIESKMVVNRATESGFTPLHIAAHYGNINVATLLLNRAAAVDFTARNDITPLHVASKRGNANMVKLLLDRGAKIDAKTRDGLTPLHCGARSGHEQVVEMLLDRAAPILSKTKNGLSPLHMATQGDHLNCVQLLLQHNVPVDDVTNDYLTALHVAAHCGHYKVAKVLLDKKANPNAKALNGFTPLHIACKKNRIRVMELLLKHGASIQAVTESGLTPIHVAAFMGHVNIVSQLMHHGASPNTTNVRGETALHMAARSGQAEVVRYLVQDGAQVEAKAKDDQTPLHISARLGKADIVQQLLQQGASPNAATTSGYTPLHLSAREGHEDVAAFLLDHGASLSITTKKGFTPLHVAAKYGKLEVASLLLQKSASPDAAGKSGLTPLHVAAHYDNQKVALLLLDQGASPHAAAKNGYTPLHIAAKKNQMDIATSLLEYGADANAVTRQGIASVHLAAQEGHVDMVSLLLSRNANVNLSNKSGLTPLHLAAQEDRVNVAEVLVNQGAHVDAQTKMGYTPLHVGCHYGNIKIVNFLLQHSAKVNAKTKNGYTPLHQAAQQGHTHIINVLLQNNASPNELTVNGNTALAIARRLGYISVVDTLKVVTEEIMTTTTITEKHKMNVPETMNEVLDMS

[2] = biological target: T2, Nav1.2_ABD (ankyrin binding domain of Nav1.2, residues 1035–1129); assay: ITC; conditions: chain shown with the change
T2 chain: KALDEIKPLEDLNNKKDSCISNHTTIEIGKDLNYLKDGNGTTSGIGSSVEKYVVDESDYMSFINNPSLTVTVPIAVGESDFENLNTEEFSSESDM

[3] = biological target: T2, Nav1.2_ABD (ankyrin binding domain of …); assay: ITC; conditions: chain shown with the change
[4] = biological target: T2, Nav1.2_ABD (ankyrin binding domain of …); assay: ITC; conditions: chain shown with the change
[5] = biological target: T3, Nfasc_ABD (28-residue fragment of the neurofascin cytoplasmic tail, residues 1187–1214); assay: ITC; conditions: chain shown with the change;; parent: 0.21 ± 0.02
T3 chain: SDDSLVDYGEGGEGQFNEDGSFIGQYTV

[6] = biological target: T2, Nav1.2_ABD (ankyrin binding domain of …); assay: ITC; conditions: chain shown with the change
[7] = biological target: T4, Nav1.2 ABD C-terminal half (UniProt Q99250)
T4 chain: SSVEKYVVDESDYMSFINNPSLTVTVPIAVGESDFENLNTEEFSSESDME

[8] = biological target: T5, AnkG_repeats (24 ANK repeats of rat 190 kDa ankyrin-G, residues 38–855) (rat, UniProt O70511 38-855); assay: ITC
T5 chain: T1 chain

[9] = biological target: T6, AnkG ANK repeats R1–6 (truncation of AnkG_repeats with C-terminal capping sequence) (rat | human); assay: ITC
T6 chain: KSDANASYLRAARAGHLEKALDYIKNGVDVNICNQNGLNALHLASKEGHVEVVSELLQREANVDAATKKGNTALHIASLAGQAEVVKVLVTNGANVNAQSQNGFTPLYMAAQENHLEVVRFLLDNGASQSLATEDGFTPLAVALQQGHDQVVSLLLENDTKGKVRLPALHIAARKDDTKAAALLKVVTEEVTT

[10] = biological target: T5, AnkG_repeats (24 ANK repeats of rat 190 …); assay: ITC
[11] = biological target: T7, AnkG_repeats (Rattus norvegicus, UniProt O70511); assay: ITC binding to AnkG_repeats WT; conditions: 25°C, 50 mM Tris, 100 mM NaCl, 1 mM EDTA, 1 mM DTT, pH 7.5, one-site binding model, AnkG_repeats WT
T7 construct: thioredoxin-His6 (N); made in house; host or cells: Escherichia coli BL21 (DE3)
T7 sequence (O70511 38-855): T1 chain
From the text: The coding sequences of AnkB_repeats (residues 28–873) were PCR amplified using the full-length human 220 kDa AnkB as the template. The coding sequences of the AnkR constructs, including AnkR_repeats (residues 42–853), and the full length AnkR C-terminal domain (residues 1529–1907), were PCR amplified from a mouse muscle cDNA library. The coding sequence of AnkG_repeats (residues 38–855) were PCR amplified using the full-length rat 190 kDa AnkG as the template. The fusion construct of AnkR_AS and AnkB_repeats was made by standard two-step PCR with a coding sequence of thrombin recognition residues ‘GSLVPRGS’ as the linker. This construct was used to crystallize and determine the complex structure. The same strategy was used in making other fusion constructs, including the Nav1.2_ABD-C/AnkB_repeats_R1–9 fusion construct containing residues 1103–1129 from mouse Nav1.2 and human AnkB residues 28–318 followed by a capping sequence corresponding to the αB of R24 (residues 814–822) and the AnkR_AS/AnkG_repeats fusion construct. For truncation mutations of ANK repeats constructs, the same capping sequence was added to the appropriate region of the C-terminus of each construct for protein stabilization. Mouse Nav1.2 (NP_001092768.1) and mouse neurofascin (CAD65849.1) were used here for studying their interaction with ankyrins. Peptides for mouse KCNQ2 (NP_034741.2, residues 826–845) and mouse Cav1.3 (NP_083257.2, residues 2134–2166) were commercially synthesized. For simplicity, we used human 220 kDa AnkB for the amino acid numbering throughout the manuscript. For the corresponding point mutations made on AnkG_repeats, each residue number should be increased by 10. All point mutations were created using the Quick Change site-directed mutagenesis kit and confirmed by DNA sequencing. […]
Isothermal titration calorimetry (ITC) measurements were carried out on a VP-ITC MicroCal calorimeter (MicroCal, Northampton, MA) at 25°C. […] The titration data were analyzed using the program Origin 7.0 and fitted by the one-site binding model.

B1: Nav1.2_ABD (ankyrin binding domain of Nav1.2, residues 1035–1129) E1112Q (protein)
chain: T2 chain with E78Q
Question: How did the Kd [1] turn out when B1 was run?
Answer: 4600 nM

B2: AnkG_repeats (24 ANK repeats of rat 190 kDa ankyrin-G, residues 38–855), O70511 F131Q; F164Q (protein)
chain: T1 chain with F104Q, F137Q
Question: How did the Kd [2] turn out when B2 was run?
Answer: 6600 nM

Question: What about the Kd [3] of the same molecule?
Answer: 6600 nM

B3: AnkG_repeats (24 ANK repeats of rat 190 kDa ankyrin-G, residues 38–855), O70511 L366Q; F399Q; L432Q (protein)
chain: T1 chain with L339Q, F372Q, L405Q
Question: What does the source list for B3?
Answer: Kd [4]: 1100 nM; Kd [3]: 1100 nM; Kd [5]: 6000 nM

B4: Nav1.2_ABD (ankyrin binding domain of Nav1.2, residues 1035–1129) E1112A (protein)
chain: T2 chain with E78A
Question: Which Kd [1] does the source give for B4 here?
Answer: 4300 nM

B5: AnkG_repeats (24 ANK repeats of rat 190 kDa ankyrin-G, residues 38–855), O70511 I267Q; L300Q (protein)
chain: T1 chain with I240Q, L273Q
Question: Which Kd [6] does the source give for B5 here?
Answer: 220 nM

Question: And the Kd [3]?
Answer: 220 nM

Question: And the Kd [5]?
Answer: 2800 nM

Question: Which Kd [7] does the source give for MMNEDA [AnkB repeats R1-6] here?
Answer: ~2300 nM

Question: With TVTVPIAVGESDFENLNTEEFSSESDM (domain or fragment) [Nav1.2_ABD-C (27-residue motif of loop 2, residues 1103–1129)] as the molecule, how does the Kd [8] read?
Answer: 2700 nM

Question: What about the Kd [9] of the same molecule?
Answer: 2300 nM

B6: Nfasc entire cytoplasmic tail (residues 1132–1240) (domain or fragment)
chain: KRSRGGKYPVREKKDVPLGPEDPKEEDGSFDYSDEDNKPLQGSQTSLDGTIKQQESDDSLVDYGEGGEGQFNEDGSFIGQYTVKKDKEETEGNESSEATSPVNAIYSLA
Question: For B6, which Kd [10] is on record?
Answer: 580 nM

B7: Nav1.2 ABD without the C-terminal less-conserved 10 residues of ABD-C (domain or fragment)
chain: KALDEIKPLEDLNNKKDSCISNHTTIEIGKDLNYLKDGNGTTSGIGSSVEKYVVDESDYMSFINNPSLTVTVPIAVGESDFENLN
Question: B7 was tested. Which Kd [8] did it give?
Answer: 170 nM

B8: ABD-N (1035 - 1102): N-terminal 68-residue fragment of Nav1.2 loop 2 (residues 1035–1102) (protein, UniProt Q99250 1035-1102, looked up, fragment)
chain: ALDEIKPLEDLNNKKDSCISNHTTIEIGKDLNYLKDGNGTTSGIGSSVEKYVVDESDYMSFINNPSLT
Question: For B8, which Kd [11] is on record?
Answer: 8100 ± 1100 nM

Question: And the Kd ([11]; listed as ABD-N)?
Answer: ~8000 nM
